This note sets out measurements from article PMC9239266 (mBio, 2022).

B2: CopC ΔN50 (recombinant) (domain or fragment)
chain: AAGKIGAFLRKAVAAQSYGLMFANGKLFEATGDALEKRGQYGFSALQRLDGLSRRNLAAVEARLGALDSAERGLKERIMTGAWHFRHQSNAALDDGKTAAIASNHLLARESRSSGGNTFAGDKALLSNHDFVFFGVEFSGRGKQDKPLNHKHSTMDFGANAYVVPDTLPACRHGYLTLTDHFFNRVPGGREAEHQDFVGSFPQMGAETGRWIHEGKYRQNAPIFNYRDMKAAVALHLIEFLRDSKDAAFKAYVFDQAMQSGQALDRVLNSVFQAEFHIPRLMATTDYAKHPLRPMLLKEAVDSVNLPALSGLVSSKGDAVTAMWHAIDKGKDAVAAHLLGNWRFEAGDFASAPPGFYHELNYALSEHGASVYILDQFLSRGWAAVNAPFEHVNSGETMLDNAVKYGNREMAAALIKHGADRNLLSEWNGGKLDALLA
notes: also called CopC Δ50; source: E. coli BL21(DE3), purified (glutathione-Sepharose, GST removed by PreScission protease)

The assay “CopC ΔN50 (recombinant)” addresses B2. Kind of assay: SEC. Particulars: both partners purified.
In a further assay the target is T1, recombinant CaM (human, UniProt P0DP23 1-149).
T1 construct: also called calmodulin; Ca^2+-free CaM
Kind of assay: SEC. Conditions: both partners purified.

B1: caspase-7 p30 (C186A), ΔN23 (enzyme, human, UniProt P55210 24-303, looked up)
chain: AKPDRSSFVPSLFSKKKKNVTMRSIKTTRDRVPTYQYNMNFEKLGKCIIINNKNFDKVTGMGVRNGTDKDAEALFKCFRSLGFDVIVYNDCSCAKMQDLLKKASEEDHTNAACFACILLSHGEENVIYGKDGVTPIKDLTAHFRGDRCKTLLEKPKLFFIQAARGTELDDGIQADSGPINDTDANPRYKIPVEADFLFAYSTVPGYYSWRSPGRGSWFVQALCSILEEHGKDLEIMQILTRVNDRVARHFESQSDDPHFHEKKQIPCVVSMLTKELYFSQ
notes: also called CASP7 p30^C186A; caspase-7 p30 (C/A); source: E. coli BL21(DE3), purified (Ni-Sepharose)
In the case of B1, in the assay with CopC ΔN50 (recombinant), the binding result is given as “binds”. Consider B2, for which, in the assay with recombinant CaM, the binding result is recorded as “binds”.
